This is an account of results in the supplement of paper PMC9112550, “Optimization of the antimicrobial peptide Bac7 by deep mutational scanning” (BMC Biology, 2022).

This data set has as its system Escherichia coli TOP10. Kind of data set: shrunken log2 fold change of peptide-encoding DNA abundance (4.5 h post-induction vs induction); higher = less antimicrobial activity (less host growth inhibition). Conditions: time post-induction: 4.5 h; library: site-saturation at positions 5, 18, 19, 20.
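Further: peptides expressed intracellularly from a pBAD plasmid library in pooled LB shake-flask culture, induced with 0.3% L-arabinose, DNA abundance read by NGS, three biological replicates, DESeq2 with apeglm shrinkage.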

With RRIRARPPRLPRPRPRPCMAPRP, the “shrunken log2 fold change” value was 0.104. As to RRIRGRPPRLPRPRPRPVEGPRP, the “shrunken log2 fold change” value stood at 0.305. To RRIRMRPPRLPRPRPRPHRLPRP belongs 0.108; to RRIRCRPPRLPRPRPRPHLTPRP, -0.229.

As for RRIRGRPPRLPRPRPRPFMLPRP, the “shrunken log2 fold change” value was -0.0447. Then RRIRCRPPRLPRPRPRPLSEPRP, with -0.219; and RRIRIRPPRLPRPRPRPATAPRP, with 0.0897; and RRIRLRPPRLPRPRPRPLTAPRP, with -0.0325. Regarding RRIRYRPPRLPRPRPRPIMKPRP, the “shrunken log2 fold change” value is 0.0367. Then RRIRKRPPRLPRPRPRPYYHPRP, with 0.158; and RRIRSRPPRLPRPRPRPGGVPRP, with 0.326. Then RRIRRRPPRLPRPRPRPDRPPRP, with 0.13. Then RRIRIRPPRLPRPRPRPSWAPRP, with -0.0867; and RRIRGRPPRLPRPRPRPQEEPRP, with 0.0943; and RRIRIRPPRLPRPRPRPCGVPRP, with -0.153.

On to RRIRFRPPRLPRPRPRPSSTPRP, for which the “shrunken log2 fold change” value was -0.325.

On to RRIRCRPPRLPRPRPRPVNMPRP, for which the “shrunken log2 fold change” value is -0.179. To RRIRNRPPRLPRPRPRPYNSPRP belongs -1.61; to RRIRFRPPRLPRPRPRPNDDPRP, -0.755. Regarding RRIRMRPPRLPRPRPRPGNAPRP, the “shrunken log2 fold change” value stood at 0.573. To RRIRVRPPRLPRPRPRPGPTPRP belongs 0.448. To RRIRFRPPRLPRPRPRPITEPRP belongs -0.0279. To RRIRNRPPRLPRPRPRPEQMPRP belongs -0.0261.

For RRIRARPPRLPRPRPRPPHAPRP, the “shrunken log2 fold change” value stood at 0.964. Then RRIRHRPPRLPRPRPRPFDWPRP, with -0.0238; and RRIRARPPRLPRPRPRPTLNPRP, with 0.496.

As to RRIRHRPPRLPRPRPRPYFDPRP, the “shrunken log2 fold change” value is -0.422. As for RRIRIRPPRLPRPRPRPHRTPRP, the “shrunken log2 fold change” value is -0.125. Then RRIRKRPPRLPRPRPRPKTKPRP, with 0.411; and RRIRARPPRLPRPRPRPQHHPRP, with -0.298; and RRIRVRPPRLPRPRPRPFQEPRP, with 0.00442. Regarding RRIRERPPRLPRPRPRPTRVPRP, the “shrunken log2 fold change” value is -0.0943. RRIRSRPPRLPRPRPRPNQNPRP: the “shrunken log2 fold change” value was -0.274. With RRIRARPPRLPRPRPRPELGPRP, the “shrunken log2 fold change” value turned out to be 1.43. To RRIRGRPPRLPRPRPRPGIGPRP belongs 0.942. To RRIRWRPPRLPRPRPRPAWNPRP belongs 0.155; to RRIRNRPPRLPRPRPRPYHRPRP, -0.121; to RRIRKRPPRLPRPRPRPAVHPRP, 0.112. RRIRERPPRLPRPRPRPKMLPRP: the “shrunken log2 fold change” value is -0.0332. In the case of RRIRSRPPRLPRPRPRPWLKPRP, the “shrunken log2 fold change” value was determined as 0.0524.

Take RRIRSRPPRLPRPRPRPKKDPRP: the “shrunken log2 fold change” value was determined as 0.104.

As for RRIRERPPRLPRPRPRPHESPRP, the “shrunken log2 fold change” value turned out to be 0.0153.

With RRIRFRPPRLPRPRPRPDPYPRP, the “shrunken log2 fold change” value is -0.437. Consider RRIRHRPPRLPRPRPRPYTGPRP, for which the “shrunken log2 fold change” value is -0.304. Then RRIRRRPPRLPRPRPRPQRKPRP, with 0.347; and RRIRERPPRLPRPRPRPIDGPRP, with 0.0442.

For the sequence RRIRKRPPRLPRPRPRPRYFPRP, the “shrunken log2 fold change” value stood at 0.135. As for RRIRRRPPRLPRPRPRPSTPPRP, the “shrunken log2 fold change” value is 0.225. To RRIRFRPPRLPRPRPRPGRYPRP belongs -0.0275. To RRIRTRPPRLPRPRPRPHIDPRP belongs -0.0151; to RRIRYRPPRLPRPRPRPKWVPRP, -0.0135. To RRIRQRPPRLPRPRPRPMADPRP belongs 0.207; to RRIRTRPPRLPRPRPRPQVCPRP, 0.0443; to RRIRHRPPRLPRPRPRPWADPRP, -0.36. With RRIRLRPPRLPRPRPRPWWEPRP, the “shrunken log2 fold change” value worked out at 0.176. To RRIRYRPPRLPRPRPRPLCHPRP belongs -1.18; to RRIRRRPPRLPRPRPRPIACPRP, 0.0283; to RRIRARPPRLPRPRPRPCQCPRP, 0.0726. In the case of RRIRSRPPRLPRPRPRPPPTPRP, the “shrunken log2 fold change” value came out at 0.914. As for RRIRRRPPRLPRPRPRPAYAPRP, the “shrunken log2 fold change” value was -0.0409. Then RRIRMRPPRLPRPRPRPDDPPRP, with 1.6; and RRIRPRPPRLPRPRPRPICSPRP, with -0.014; and RRIRCRPPRLPRPRPRPPPWPRP, with 1.06.

Consider RRIRYRPPRLPRPRPRPIENPRP, for which the “shrunken log2 fold change” value was -0.0122.

Regarding RRIRCRPPRLPRPRPRPWFNPRP, the “shrunken log2 fold change” value was -1.12. RRIRPRPPRLPRPRPRPVFCPRP: the “shrunken log2 fold change” value was -0.113.

On to RRIRTRPPRLPRPRPRPSLKPRP, for which the “shrunken log2 fold change” value is -0.359.

For the sequence RRIRSRPPRLPRPRPRPNFHPRP, the “shrunken log2 fold change” value is -0.171.

On to RRIRGRPPRLPRPRPRPFCDPRP, for which the “shrunken log2 fold change” value was 0.456.

For RRIRRRPPRLPRPRPRPYTWPRP, the “shrunken log2 fold change” value is -0.299.

As for RRIRHRPPRLPRPRPRPEQMPRP, the “shrunken log2 fold change” value amounted to 0.023. To RRIRPRPPRLPRPRPRPIMKPRP belongs -0.411.

Regarding RRIRPRPPRLPRPRPRPKYNPRP, the “shrunken log2 fold change” value was -0.633. To RRIRTRPPRLPRPRPRPFVMPRP belongs -0.277; to RRIRTRPPRLPRPRPRPTPCPRP, 0.124. Regarding RRIRIRPPRLPRPRPRPHQDPRP, the “shrunken log2 fold change” value is -0.122. Then RRIRIRPPRLPRPRPRPAQCPRP, with 0.211; and RRIRCRPPRLPRPRPRPFVYPRP, with -0.526. Then RRIRWRPPRLPRPRPRPYFYPRP, with -0.679. To RRIRRRPPRLPRPRPRPHSSPRP belongs -0.00646; to RRIRARPPRLPRPRPRPGWFPRP, 0.524; to RRIRVRPPRLPRPRPRPHHPPRP, -0.131. Take RRIRHRPPRLPRPRPRPGDGPRP: the “shrunken log2 fold change” value was determined as 0.209. As for RRIRFRPPRLPRPRPRPDWGPRP, the “shrunken log2 fold change” value amounted to 0.00855. As to RRIRGRPPRLPRPRPRPYYNPRP, the “shrunken log2 fold change” value is -0.48.

Consider RRIRHRPPRLPRPRPRPDYDPRP, for which the “shrunken log2 fold change” value is -0.278. As for RRIRNRPPRLPRPRPRPMDWPRP, the “shrunken log2 fold change” value was -0.0484.

For RRIRGRPPRLPRPRPRPLVGPRP, the “shrunken log2 fold change” value was determined as 0.439.

On to RRIRDRPPRLPRPRPRPRAVPRP, for which the “shrunken log2 fold change” value was 0.764.

For the sequence RRIRIRPPRLPRPRPRPKRMPRP, the “shrunken log2 fold change” value was -0.518. To RRIRQRPPRLPRPRPRPSNPPRP belongs 0.0169; to RRIRLRPPRLPRPRPRPCFNPRP, -0.774; to RRIRVRPPRLPRPRPRPGHWPRP, 0.164. To RRIRARPPRLPRPRPRPDHVPRP belongs 0.0166; to RRIRHRPPRLPRPRPRPTTRPRP, 0.383. Turning to RRIRCRPPRLPRPRPRPDLGPRP, the “shrunken log2 fold change” value was found to be 0.43.

Turning to RRIRMRPPRLPRPRPRPSILPRP, the “shrunken log2 fold change” value is 0.0568. Then RRIRQRPPRLPRPRPRPLQRPRP, with -0.0166; and RRIRSRPPRLPRPRPRPVYKPRP, with -0.166. To RRIRRRPPRLPRPRPRPIQPPRP belongs -0.0245; to RRIRTRPPRLPRPRPRPTDQPRP, -0.143.

Consider RRIRARPPRLPRPRPRPCWWPRP, for which the “shrunken log2 fold change” value amounted to 0.157. RRIRIRPPRLPRPRPRPSEQPRP: the “shrunken log2 fold change” value is -0.0663. To RRIRWRPPRLPRPRPRPKRGPRP belongs 0.239. To RRIRDRPPRLPRPRPRPFGRPRP belongs -0.0125; to RRIRDRPPRLPRPRPRPGWHPRP, 0.27; to RRIRCRPPRLPRPRPRPPHLPRP, 0.079. To RRIRFRPPRLPRPRPRPIFDPRP belongs -0.268; to RRIRKRPPRLPRPRPRPLGSPRP, -0.115; to RRIRCRPPRLPRPRPRPPMVPRP, -0.147. On to RRIRFRPPRLPRPRPRPNGYPRP, for which the “shrunken log2 fold change” value is -0.3.

As to RRIRFRPPRLPRPRPRPLSMPRP, the “shrunken log2 fold change” value was -0.363. To RRIRFRPPRLPRPRPRPKHSPRP belongs -0.434.

In the case of RRIRQRPPRLPRPRPRPFNQPRP, the “shrunken log2 fold change” value is 0.00312. Then RRIRWRPPRLPRPRPRPGGLPRP, with 0.403. Then RRIRKRPPRLPRPRPRPTRWPRP, with 0.413; and RRIRQRPPRLPRPRPRPNTEPRP, with -0.0119. To RRIRWRPPRLPRPRPRPLVYPRP belongs 0.114. Take RRIRQRPPRLPRPRPRPNYPPRP: the “shrunken log2 fold change” value is -0.239. To RRIRVRPPRLPRPRPRPQDLPRP belongs -0.0193; to RRIRYRPPRLPRPRPRPCCYPRP, -0.363; to RRIRIRPPRLPRPRPRPFYCPRP, -0.633.

For the sequence RRIRERPPRLPRPRPRPFCWPRP, the “shrunken log2 fold change” value turned out to be 0.0996. For the sequence RRIRTRPPRLPRPRPRPAMLPRP, the “shrunken log2 fold change” value was -0.0605.

Consider RRIRKRPPRLPRPRPRPEWYPRP, for which the “shrunken log2 fold change” value is -0.204.
